Bridge positions count the residues as written; N and C are the ends. Square brackets hold non-standard residues; d marks the D form. NMeF = CN[C@@H](Cc1ccccc1)C(=O)O; NMeS = CN[C@@H](CO)C(=O)O; Sar = CNCC(=O)O
Biological target: T1, biotinylated Avi-His-GB1-E6AP-HECT domain (human, UniProt P06654 228-282; Q05086 495-852, limits assumed, biotin on the Avi tag)
T1 construct: domain: Protein GB1 domain;domain: HECT domain; also called C terminal domain of ubiquitin ligase E6AP
Assay: SPR, BIACORE T100, Avi-His-GB1-E6AP-HECT on streptavidin chip, peptide as analyte
Experimental: The binding constant of MCP11 to E6AP-HECT was analyzed by a surface plasmon resonance using BIACORE T100.
A streptavidin sensor chip (SA chip certified) was used as a sensor chip, an Avi-His-GB1-E6AP-HECT was used as a ligand, and MCP11 was used as an analyte.

T1 sequence (P06654 228-282, tags or fused parts left off): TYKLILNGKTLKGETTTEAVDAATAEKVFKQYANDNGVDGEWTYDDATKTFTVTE

Kd: 0.5 nM
B1: MCP11, Cyclo(-Ac-DWCDVMeSGRMeFMeGYMeFPC)G-OH (chemically synthesized cyclic N-methyl peptide) (peptide)
peptide: {CH2CO}-[dW]CDV[NMeS]GR[NMeF][Sar]Y[NMeF]PCG-OH
modifications: thioether N-13
notes: The formula stands in the summary (h-0009)
